This test has as its target T1, SARS-CoV-2 6P spike ectodomain peplomer (USA-WA1/2020; 6P stabilization) (SARS-CoV-2 USA-WA1/2020 (MN985325), stabilised).
T1 construct: also called stabilized spike trimer; spike peplomer
Kind of test: cryo-EM structure. The note with it: both partners purified.

Several values for one entry are separate records, joined by “and”; a condition that tells them apart may be missing. Equal values may be shown once.

B1: 2130 dFab, DNA-encoded Fab obtained from serum-derived DMAb 2130 TM(m3) (Fab, V domains shown)
VH: EVQLVESGGGLVKPGGSLRLSCAASGFTFRDVWMSWVRQAPGKGLEWVGRIKSKIDGGTTDYAAPVKGRFTISRDDSKNTLYLQMNSLKTEDTAVYYCTTAGSYYYDTVGPGLPEGKFDYWGQGTLVTVSS
VL: not shown
notes: also called dFab 2130
For B1, the “stoichiometry N” value turned out to be 3 dFabs per spike trimer.

B2: 2196 dFab, DNA-encoded Fab obtained from serum-derived DMAb 2196 TM(m3) (Fab, V domains shown)
VH: QMQLVQSGPEVKKPGTSVKVSCKASGFTFMSSAVQWVRQARGQRLEWIGWIVIGSGNTNYAQKFQERVTITRDMSTSTAYMELSSLRSEDTAVYYCAAPYCSSISCNDGFDIWGQGTMVTVSS
VL: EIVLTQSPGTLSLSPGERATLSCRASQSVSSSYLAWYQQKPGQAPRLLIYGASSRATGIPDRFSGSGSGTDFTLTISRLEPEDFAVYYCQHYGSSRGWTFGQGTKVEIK
notes: also called dFab 2196; 2196DMAb Fab
On to B2, for which the “stoichiometry N” value was 1 dFab per spike trimer and 2 dFabs per spike trimer and 1 copy per RBD (all three RBDs).
